How the values were obtained:
[1] = target: GAPDH (SiMa cell lysate) (human (SiMa cells)) (UniProt P04406); assay: ECL sandwich ELISA, SiMa lysate; capture MAB374, detection G9545; result of the pair
[2] = target: GAPDH (SiMa cell lysate) (human (SiMa cells)) (UniProt P04406); assay: ECL sandwich ELISA, SiMa lysate; capture MAB374, detection G8795; result of the pair
[3] = target: GAPDH (SiMa cell lysate) (human (SiMa cells)) (UniProt P04406); assay: ECL sandwich ELISA, SiMa lysate; capture MAB374, detection 2275-PC-1; result of the pair
[4] = target: SNAP-25134-197 peptide (human); assay: SPR (BIAcore 3000), peptide amine-coupled to CM5, antibody as analyte, 1:1 fit
[5] = target: SNAP-25134-206 peptide (human); assay: as above
[6] = target: syntaxin 2 (SiMa cell lysate) (human (SiMa cells)) (UniProt P32856); assay: ECL sandwich ELISA, SiMa lysate; capture MAB2936, detection AB5596; result of the pair
[7] = target: syntaxin 2 (SiMa cell lysate) (human (SiMa cells)) (UniProt P32856); assay: ECL sandwich ELISA, SiMa lysate; capture MAB2936, detection S5687; result of the pair
[8] = target: syntaxin 1 (SiMa cell lysate) (human (SiMa cells)) (UniProt Q16623); assay: ECL sandwich ELISA, SiMa lysate; capture S0664, detection S1172-1; result of the pair
[9] = target: syntaxin 1 (SiMa cell lysate) (human (SiMa cells)) (UniProt Q16623); assay: ECL sandwich ELISA, SiMa lysate; capture S0664, detection S1172-2; result of the pair
[10] = target: GAPDH (SiMa cell lysate) (human (SiMa cells)) (UniProt P04406); assay: ECL sandwich ELISA, SiMa lysate; capture G8795, detection 2275-PC-1; result of the pair

| Substance | Kd [4] | koff [4] | kon [4] | Kd [5] | koff [5] | further results |
| --- | --- | --- | --- | --- | --- | --- |
| α-GAPDH mouse monoclonal antibody MAB374 (Chemicon) |  |  |  |  |  | Signal/Noise Ratio (lysate/buffer) [1]: > 100; Signal/Noise Ratio (lysate/buffer) [2]: 0.89; Signal/Noise Ratio (lysate/buffer) [3]: 20 |
| MC-6050 α-SNAP-25 mouse monoclonal antibody (Research & Diagnostic Antibodies) | 0.497 nM | 0.000882 s⁻¹ | 1.78e+06 M⁻¹ s⁻¹ | 19800 nM | 0.00607 s⁻¹ | kon [5]: 306 M⁻¹ s⁻¹ |
| α-human syntaxin 2 mouse monoclonal antibody MAB2936 (R & D Systems) |  |  |  |  |  | Signal/Noise Ratio (lysate/buffer) [6]: 1.2; Signal/Noise Ratio (lysate/buffer) [7]: 1.07 |
| α-Syntaxin 1A-HPC mouse monoclonal antibody S0664 (Sigma) |  |  |  |  |  | Signal/Noise Ratio (lysate/buffer) [8]: 4.23; Signal/Noise Ratio (lysate/buffer) [9]: 1.21 |
| MC-6053 α-SNAP-25 mouse monoclonal antibody (Research & Diagnostic Antibodies) | 0.508 nM | 0.00118 s⁻¹ | 2.32e+06 M⁻¹ s⁻¹ | 240 nM | 2.56e-05 s⁻¹ |  |
| α-GAPDH mouse monoclonal antibody G8795 (Sigma) |  |  |  |  |  | Signal/Noise Ratio (lysate/buffer) [10]: 2.74 |

From patent publication US20100203559A1
